Patent US6887705B1, “Tyrosine phosphorylated cleavage furrow-associated proteins (PSTPIPs)” (Genentech, Inc., priority 1997, dated 2005)
Where a chain is given by its changes, count along the chain named. Names may count otherwise.

T1: PTP HSCF (Mus musculus, UniProt Q61152)
T1 construct: the PST (and C-terminal homolog) of PTP HSCF (amino acids 304-453); made in house; host or cells: E. coli DH5-alpha
T1 sequence (Q61152 304-453): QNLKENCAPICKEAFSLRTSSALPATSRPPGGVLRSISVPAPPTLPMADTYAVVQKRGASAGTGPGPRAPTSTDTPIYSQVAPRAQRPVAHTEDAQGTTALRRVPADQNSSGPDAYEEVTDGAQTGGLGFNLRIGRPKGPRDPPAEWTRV

B1: tryptophan at position 205: PST PIP with tryptophan 205 mutated to alanine (protein)
chain: MMAQLQFRDAFWCRDFTAHTGYEVLLQRLLDGRKMCKDVEELLRQRAQAEERYGKELVQIARKAGGQTEMNSLRTSFDSLKQQTENVGSAHIQLALALREELRSLEEFRERQKEQRKKYEAIMDRVQKSKLSLYKKTMESKKAYDQKCRDADDAEQAFERVSANGHQKQVEKSQNKAKQCKESATEAERVYRQNIEQLERARTEAEQEHRTTCEAFQLQEFDRLTILRNALWVHCNQLSMQCVKDDELYEEVRLTLEGCDVEGDINGFIQSKSTGREPPAPVPYQNYYDREVTPLIGSPSIQPSCGVIKRFSGLLHGSPKTTPSAPAASTETLTPTPERNELVYASIEVQATQGNLNSSAQDYRALYDYTAQNSDELDISAGDILAVILEGEDGWWTVERNGQRGFVPGSYLEKL
modifications: Mus Musculus
notes: PST PIP with tryptophan 205 mutated to alanine
B2: I122MD: PST PIP clustered alanine substitution starting at I122 (protein)
chain: MMAQLQFRDAFWCRDFTAHTGYEVLLQRLLDGRKMCKDVEELLRQRAQAEERYGKELVQIARKAGGQTEMNSLRTSFDSLKQQTENVGSAHIQLALALREELRSLEEFRERQKEQRKKYEAAAARVQKSKLSLYKKTMESKKAYDQKCRDADDAEQAFERVSANGHQKQVEKSQNKAKQCKESATEAERVYRQNIEQLERARTEWEQEHRTTCEAFQLQEFDRLTILRNALWVHCNQLSMQCVKDDELYEEVRLTLEGCDVEGDINGFIQSKSTGREPPAPVPYQNYYDREVTPLIGSPSIQPSCGVIKRFSGLLHGSPKTTPSAPAASTETLTPTPERNELVYASIEVQATQGNLNSSAQDYRALYDYTAQNSDELDISAGDILAVILEGEDGWWTVERNGQRGFVPGSYLEKLDYKDDDDK
B3: L224: PST PIP with leucine 224 mutated to alanine (protein)
chain: B2 chain with A122I, A123M, A124D, L224A
B4: D38VE: PST PIP clustered alanine substitution starting at D38 (protein)
chain: B2 chain with D38A, V39A, E40A, A122I, A123M, A124D
B5: R99EE: PST PIP clustered alanine substitution starting at R99 (protein)
chain: B2 chain with R99A, E100A, E101A, A122I, A123M, A124D
B6: E159RV: PST PIP clustered alanine substitution starting at E159 (protein)
chain: B2 chain with A122I, A123M, A124D, E159A, R160A, V161A
B7: E50ER: PST PIP clustered alanine substitution starting at E50 (protein)
chain: B2 chain with E50A, E51A, R52A, A122I, A123M, A124D
B8: E110RQ: PST PIP clustered alanine substitution starting at E110 (protein)
chain: B2 chain with E110A, R111A, Q112A, A122I, A123M, A124D
B9: Q169VE: PST PIP clustered alanine substitution starting at Q169 (protein)
chain: B2 chain with A122I, A123M, A124D, Q169A, V170A, E171A
B10: F221: PST PIP with phenylalanine 221 mutated to alanine (protein)
chain: B2 chain with A122I, A123M, A124D, F221A
B11: D145QK: PST PIP clustered alanine substitution starting at D145 (protein)
chain: B2 chain with A122I, A123M, A124D, D145A, Q146A, K147A
B12: L133YK: PST PIP clustered alanine substitution starting at L133 (protein)
chain: B2 chain with A122I, A123M, A124D, L133A, Y134A, K135A
B13: N86VG: PST PIP clustered alanine substitution starting at N86 (protein)
chain: B2 chain with N86A, V87A, G88A, A122I, A123M, A124D
B14: R62K: PST PIP clustered alanine substitution starting at R62 (protein)
chain: B2 chain with R62A, K63A, A122I, A123M, A124D

Target: T1, PTP HSCF
Experiment: In vitro GST pull-down binding of PST PIP forms to PTP HSCF
Details: for precipitation of in vitro translated PTP HSCF by GST fusions of PSTPIP or its domains: ~1 microgram per ml GST fusion protein
Description: The binding was carried out according to the method of Wong and Johnson (Wong et al., J. Biol. Chem. 271(35):20981-20984 (1996)). Briefly, 1 μg of plasmid with either the PSTPIP protein or PTP HSCF under the control of the Sp6 promoter was in vitro transcribed/translated using the Promega™ TnT Rabbit Reticulocyte™ system. Samples were diluted in 50 mM HEPES, pH 7.2, 1% triton X 100, 10% glycerol, 100 mM NaCl, 5 mM EDTA and 2 μg/ml each of leupeptin, pepstatin, aprotinin, and PMSF. […] This was reacted for 1 hour at 4° C. and then the resin washed 6 times in HEPES/Triton binding buffer before SDS gel electrophoresis. The peptides were synthesized on an automated Milligen 9050 Peptide Synthesizer using standard solid phase chemistry with FMOC protected amino acids on a p-alkoxybenzyl alcohol resin. Dried peptides were re-suspended in the HEPES/Triton Binding buffer at a concentration of 10 mg/ml. Peptide inhibition was performed by adding the peptide first to the in vitro translation product and then the GST-fusion followed by the GSH-Sepharose. The binding/washing steps were as previously described. The peptides synthesized and the PTPs they were derived from were: • PXXP-HSCF: 432[…]451 (PTP HSCF) (SEQ ID NO:20), • PXXP-PEP: 782GFGNRFSKPKGPRNPPSAW800 (PTP PEP) (SEQ ID NO:21), • PXXP-PEST: 761[…]780 (PTP PEST) SEQ ID NO:22), • PXXP-CONTROL: 334[…]353 (PTP HSCF) (SEQ ID NO:23).
In vitro binding analyses between various PTP HSCF and PST PIP constructs were performed as previously described (Spencer et al, (1997), supra). Briefly, plasmids were transcribed and translated in vitro using the TnT Rabbit Reticulocyte Lysate System (Promega). Samples were diluted in 50 mM HEPES, pH 7.2, 1% triton X-100, 10% glycerol, 100 mM NaCl, and 2 μg/ml each of leupeptin, pepstatin, aprotinin and PMSF (lysis buffer). Samples were than reacted with GST fusion proteins at various concentrations, and the bound proteins were centrifuged using glutathione-sepharose beads and analyzed on SDS polyacrylamide gels. C-terminally-derived peptide inhibition studies were performed by incubating the GST fusion protein binding reactions in the presence of 10 μg/ml of the indicated peptides. Peptides were produced by FMOC-protected amino acids as previously described (Spencer et al, (1997), supra). In vivo interactions between various forms of PTP HSCF and PST PIP were also performed as previously described (Spencer et al, (1997), supra). Briefly, COS cells were transfected with various constructs, and after 48 hours, lysates were prepared and immunoprecipitated with antibodies to either the FLAG epitope contained at the C-terminus of PST PIP or an HA epitope contained at the N-terminus of PTP HSCF. The resultant blots were probed with anti-FLAG to detect PST PIP, anti-HA to detect PTP HSCF or anti-phosphotyrosine to detect levels of this modified amino acid in each protein.

| Molecule | precipitation of in vitro translated PTP HSCF by GST fusions of PSTPIP or its domains | binding of in vitro translated PST PIP forms to GST fusion of C-terminal 149 amino acids of PTP HSCF |
| --- | --- | --- |
| coiled coil domain: GST fusion containing the coiled coil domain of PSTPIP | mediated by the coiled coil domain |  |
| amino acids 1-264 of the coiled coil domain: form of PST PIP containing amino acids 1-264 |  | binding of PTP HSCF could be obtained |
| SH3 region: GST fusion containing the SH3 domain of PSTPIP | not the SH3 region |  |
| B1 |  | no effect on PTP HSCF binding was observed |
| B2 |  | either no or a minor change in the binding activity |
| B3 |  | no effect on PTP HSCF binding was observed |
| B4 |  | either no or a minor change in the binding activity |
| B5 |  | either no or a minor change in the binding activity |
| B6 |  | either no or a minor change in the binding activity |
| B7 |  | either no or a minor change in the binding activity |
| B8 |  | either no or a minor change in the binding activity |
| B9 |  | either no or a minor change in the binding activity |
| B10 |  | no effect on PTP HSCF binding was observed |
| B11 |  | either no or a minor change in the binding activity |
| B12 |  | either no or a minor change in the binding activity |
| B13 |  | either no or a minor change in the binding activity |
| B14 |  | either no or a minor change in the binding activity |
